Reference: patent CN115536746A (NANJING SANHOME PHARMACEUTICAL CO LTD, dated 2022)

Columns and labels:
[1] = biological target: T1, 人源CRTAM蛋白全长 on CHO-K1-hCRTAM cells (human, UniProt O95727 18-393); assay: flow cytometry on CHO-K1-hCRTAM cells
T1 construct: also called 细胞表面hCRTAM
T1 sequence: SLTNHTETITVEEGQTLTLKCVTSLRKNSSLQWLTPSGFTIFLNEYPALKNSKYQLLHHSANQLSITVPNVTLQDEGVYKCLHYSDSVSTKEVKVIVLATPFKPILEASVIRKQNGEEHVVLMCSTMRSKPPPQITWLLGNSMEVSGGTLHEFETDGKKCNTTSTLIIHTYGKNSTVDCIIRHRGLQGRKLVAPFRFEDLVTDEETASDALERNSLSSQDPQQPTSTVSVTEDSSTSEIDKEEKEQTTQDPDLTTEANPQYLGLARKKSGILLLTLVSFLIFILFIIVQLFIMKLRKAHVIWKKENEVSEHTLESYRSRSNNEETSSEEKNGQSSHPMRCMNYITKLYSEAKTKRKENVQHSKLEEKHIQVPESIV

[2] = biological target: T2, 猴源CRTAM蛋白全长 on CHO-K1-cCRTAM cells (猴源 (食蟹猴, cynomolgus monkey), UniProt O95727 18-393 (human entry)); assay: flow cytometry on CHO-K1-cCRTAM cells
T2 construct: also called 细胞表面食蟹猴CRTAM
T2 chain: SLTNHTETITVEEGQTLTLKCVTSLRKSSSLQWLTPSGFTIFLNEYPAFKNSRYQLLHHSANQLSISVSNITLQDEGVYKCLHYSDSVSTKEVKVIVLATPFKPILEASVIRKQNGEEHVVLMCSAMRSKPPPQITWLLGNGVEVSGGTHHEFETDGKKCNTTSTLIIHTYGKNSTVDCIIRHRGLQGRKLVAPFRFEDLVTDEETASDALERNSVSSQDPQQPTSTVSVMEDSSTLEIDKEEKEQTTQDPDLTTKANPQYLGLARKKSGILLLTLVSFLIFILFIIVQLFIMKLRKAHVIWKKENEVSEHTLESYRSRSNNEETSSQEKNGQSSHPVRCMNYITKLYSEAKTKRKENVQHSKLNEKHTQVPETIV

B1: HuC110-34 (antibody, V domains shown)
VH: QVQLVQSGAEVKKPGASVKVSCKASGYTFTNNDINWVKQAPGQRLEWIGWIYPRDGSTQYNEKFRGRATITVDTSASTAYMELSSLRSEDTAVYFCARGLVDYWGQGTLVTVSS
VL: DVVMTQSPDSLAVSLGERATINCRSSQSLVHSNKNTYLHWYLQKPGQPPKLLIYKVSNRFSGVPDRFSGSGSGTDFTLTISSLQAEDVAVYYCSQSTRVPWTFGGGTKLEIK
notes: also called HuC110-34-biotin; 抗CRTAM人源化抗体HuC110-34
EC50 [1]: 0.0417 µg/mL
EC50 [2]: 0.0507 µg/mL

B2: 人源化抗体5A11 (WO2019/086878) (antibody, human IgG1, lambda, V domains shown)
VH: EVQLVESGGGLVQPGGSLKLSCAASGFTFSDAAMYWVRQASGKGLEWVARIRTKTNNYAAHYVESVKGRFTVSRDDSKNTVYLQMNSLKTEDTAMYYCTSVPQGTQDYWGQGTLVTVSS
VL: SYELTQPSSVSVSPGQTARITCSGDVLSKRYAQWSQQKPGQAIVSVIYKDSERPSGIPERFSGSSSGTTATLTISGAQVEDEADYYCLSTYADDNLPVFGGGTKLTVLG
notes: also called 阳性对照抗体; 对照抗体
EC50 [1]: 0.0607 µg/mL

B3: HuC94-31 (antibody, V domains shown)
VH: EVQLLESGGGLVQPGGSLRLSCAASGFTFSTSAMSWVRQAPGKGLEWVATISSGGDYTYYSDNVKGRFTISRDNSKSTLYLQMNSLRAEDTAVYYCTLGYDEADYWGQGSLLTVSS
VL: DIQMTQSPSSLSASVGDRVTITCRASQDISNYLNWYQQKPGKAPKLLIYYTSRLHSGVPSRFSGSGSGTDYTFTISSLQPEDIATYYCQQGDTFPWTFGGGTKLEIK
notes: also called HuC94-31-biotin; 抗CRTAM人源化抗体HuC94-31
EC50 [2]: 0.035 µg/mL

B4: HuC124-42 (antibody, V domains shown)
VH: QVQLVQSGAEVKKPGSSVKVSCKASGYSFSNYWIEWVRQAPGQGLEWIGEILPGVPTIYYNAKFKDRVTFTADKSTSTAYMELSSLRSEDTAVYYCSRDPWFAYWGQGTLVTVSA
VL: EIVLTQSPATLSVSPGERATFSCRASQSIGTSLHWFQQKPGQAPRLLIKYASQSISGIPARFSGSGSGTEFTLTISSVQSEDFAVYYCQQSNNWPFTFGGGTKLEIK
notes: also called HuC124-42-biotin; 抗CRTAM人源化抗体HuC124-42
EC50 [2]: 0.0904 µg/mL
